Data on one substance can be found in article doi:10.1101/2020.03.05.978023.

In experiment [1] the target is Human DND1 (Dead end protein homolog 1) RRM2 domain (139-217) (human). Description: SEC.
Experiment [2] shares this target. In words: crystal structure.

With “Human DND1 (Dead end protein homolog 1) RRM2 domain (139-217) (domain or fragment)”, the stoichiometry N in experiment [1] and in experiment [2] was 2 each time.
